EC50 data for 4 molecules are collected here from patent US20250263778A1 (Hoffmann-La Roche, published 2025).

Where two headings read alike, the source gives them in different places.

Test [1] concerns the target T1, murine LRP8, biotinylated (murine, UniProt Q924X6 29-858, limits assumed, biotinylated).
T1 construct: also called mu-antigen; murine antigen
Description: ELISA, biotinylated murine LRP8. In general terms: In an ELISA, binding on a coated surface is turned into a signal by an enzyme label.

The target of test [2] is T2, human LRP8 (Low-density lipoprotein receptor-related protein 8), biotinylated (human, UniProt Q14114 33-826, limits assumed, biotinylated).
T2 construct: also called hu-antigen; human antigen
Description: ELISA, biotinylated human LRP8.

Test [3] concerns the target T1, murine LRP8, biotinylated. The test is described as follows: ELISA, biotinylated murine LRP8. This is another data set of the same source.
The target in test [4] is T2, human LRP8 (Low-density lipoprotein …). Description: ELISA, biotinylated human LRP8. On the procedure: The antigen, biotinylated human LRP8, was incubated with 5 μL sample containing the anti-LRP8 antibody at a concentration of 250 ng/mL in a total volume of 25 μL in PBS, 0.5% BSA and 0.05% Tween in a 384 w microtiterplate (Maxisorb (with Streptavidin, Nunc). After 1.5 hrs. incubation at 25° C. unbound antibody was removed by washing 6 times with 90 μL PBS (dispense and aspiration). The antigen-antibody complex was detected by an anti-rabbit antibody conjugated to POD (ECL anti-rabbit IgG-POD, Cat. No. NA9340V; POD=peroxidase). 20-30 min after adding 35 μL POD-substrate 3,3′,5,5′-tetramethyl benzidine (TMB; Piercenet, Cat. No. 34021) the optical density was determined at 370 nm. The EC₅₀ value was calculated with a four parameter logistic model using GraphPad Prism 6.0 software.
This is another data set of the same source.

T2 sequence (Q14114 33-826 limits assumed): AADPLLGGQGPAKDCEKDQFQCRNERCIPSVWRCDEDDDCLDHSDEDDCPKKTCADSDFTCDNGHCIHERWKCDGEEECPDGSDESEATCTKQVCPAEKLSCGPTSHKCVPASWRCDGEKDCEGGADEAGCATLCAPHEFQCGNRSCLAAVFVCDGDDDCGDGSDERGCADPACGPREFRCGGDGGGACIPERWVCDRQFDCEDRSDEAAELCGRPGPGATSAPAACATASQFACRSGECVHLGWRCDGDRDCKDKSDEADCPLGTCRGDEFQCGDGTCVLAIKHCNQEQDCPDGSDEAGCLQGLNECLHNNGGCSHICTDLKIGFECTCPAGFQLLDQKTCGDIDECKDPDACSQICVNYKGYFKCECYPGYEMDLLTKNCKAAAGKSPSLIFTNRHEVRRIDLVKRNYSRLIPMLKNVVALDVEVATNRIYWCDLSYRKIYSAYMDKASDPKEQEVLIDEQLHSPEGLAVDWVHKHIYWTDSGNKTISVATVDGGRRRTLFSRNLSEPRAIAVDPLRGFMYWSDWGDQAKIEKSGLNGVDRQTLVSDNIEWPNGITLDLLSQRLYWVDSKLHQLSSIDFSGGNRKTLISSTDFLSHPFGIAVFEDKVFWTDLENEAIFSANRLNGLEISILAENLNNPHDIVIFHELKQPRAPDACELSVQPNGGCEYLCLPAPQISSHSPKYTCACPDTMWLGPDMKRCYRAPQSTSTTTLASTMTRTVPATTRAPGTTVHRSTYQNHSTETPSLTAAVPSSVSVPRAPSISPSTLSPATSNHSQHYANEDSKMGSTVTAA
T1 sequence (Q924X6 29-858 limits assumed): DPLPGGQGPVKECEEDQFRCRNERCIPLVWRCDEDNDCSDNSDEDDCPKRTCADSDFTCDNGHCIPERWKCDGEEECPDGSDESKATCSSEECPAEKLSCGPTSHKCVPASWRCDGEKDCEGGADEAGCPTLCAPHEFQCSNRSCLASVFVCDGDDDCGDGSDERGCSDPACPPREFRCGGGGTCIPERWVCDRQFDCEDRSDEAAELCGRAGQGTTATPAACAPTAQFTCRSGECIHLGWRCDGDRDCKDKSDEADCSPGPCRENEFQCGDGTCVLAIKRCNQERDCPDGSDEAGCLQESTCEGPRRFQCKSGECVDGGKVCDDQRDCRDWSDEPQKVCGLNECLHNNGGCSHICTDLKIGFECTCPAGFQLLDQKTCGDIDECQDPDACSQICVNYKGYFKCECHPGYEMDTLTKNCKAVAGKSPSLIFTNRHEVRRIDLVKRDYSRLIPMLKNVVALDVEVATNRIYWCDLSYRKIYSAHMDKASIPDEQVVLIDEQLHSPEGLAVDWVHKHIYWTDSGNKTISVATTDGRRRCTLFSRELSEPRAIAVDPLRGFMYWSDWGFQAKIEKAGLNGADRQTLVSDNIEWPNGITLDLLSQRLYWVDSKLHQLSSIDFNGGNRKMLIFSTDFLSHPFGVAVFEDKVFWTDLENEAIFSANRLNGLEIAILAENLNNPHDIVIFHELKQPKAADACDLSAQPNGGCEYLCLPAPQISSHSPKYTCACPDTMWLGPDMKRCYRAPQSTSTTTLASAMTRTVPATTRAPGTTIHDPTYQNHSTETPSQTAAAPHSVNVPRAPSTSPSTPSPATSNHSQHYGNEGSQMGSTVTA

B1: BCC.763 (antibody, V domains shown)
VH: CQSVEESGGRLVTPGTPLTLTCTASGFSLSSYNMNWVRQAPGKGLEWIGYINKGGSAYYASWAKGRFTISRTSTTVDLKMTSPTTEDTATYFCVRSGGGGNLNLWGQGTLVTVSS
VL: AAVLTQTPSPVSAAVGGTVTISCQSSPNILGNYLSWFQQKPGQPPKLLIYYTSTLASGVPSRFKGSGSGTQFTLTISDVQCDDAATYYCLGVYRSDSDNVFGGGTEVVVK
notes: Rabbit IgG, kappa; also called antibody 763
What is called EC50 is the midpoint of the concentration-response curve. On to B1, for which the EC50 in test [1], in test [2], in test [3] and in test [4] was < 0.02 µg/mL throughout.

B2: BCC.763-4 (antibody, V domains shown)
VH: CQSVEESGGRLVTPGTPLTLTCTASGFSLSSYNMNWVRQAPGKGLEWIGYINKGGSAYDANWAKGRFTISRTSTTVDLKMTSPTPEDTATYFCVRSGGGGNLNLWGQGTLVTVSS
VL: AAVLTQTPSPVSAAVGGTVTISCQSSPNILGNYLSWFQQKPGQPPKLLIYYTSTLASGVPSRFKGSGSGTQFTLTISDVQCDDAATYYCLGVYRSDSDNVFGGGTEVVVK
notes: recombinant rabbit IgG, kappa; Positions are Wolfguy indices; tie inferred; copies: 2 + 2
Take B2: the EC50 in test [1] was < 0.02 µg/mL; in test [2], < 0.05 µg/mL.

B3: BCC.763-2 (antibody, V domains shown)
VH: CQSVEESGGRLVTPGTPLTLTCTASGFSLSSYNMNWVRQAPGKGLAWIGYINKGGSAYYASWAKGRFTISKTSTTVDLKMTSPTTEDTATYFCVRSGGGGNLNLWGQGTLVTVSS
VL: AAVLTQTPSPVSAAVGGTVTISCQSSPNILGNYLSWFQQKPGQPPKLLIYYTSTLASGVPSRFKGSGSGTQFTLTISDVQCDDAATYYCLGVYRSDSDNVFGGGTEVVVK
notes: recombinant rabbit IgG, kappa; Positions are Wolfguy indices; tie inferred; also called VH variant 2103:7194:16368 1:N:0:1
Regarding B3, the half-maximal effective concentration (EC50) in test [1] and in test [2] was < 0.02 µg/mL throughout.

B4: BCC.763-1 (antibody, V domains shown)
VH: CQSVEESGGRLVTPGTPLTLTCTASGFSLSSYNMNWVRQAPGKGLEWIGYINKGGSAYYASWAKGRFTISRTSTTVDLKMTSPTPEDTATYFCVRSGGGGNLNLWGQGTLVTVSS
VL: AAVLTQTPSPVSAAVGGTVTISCQSSPNILGNYLSWFQQKPGQPPKLLIYYTSTLASGVPSRFKGSGSGTQFTLTISDVQCDDAATYYCLGVYRSDSDNVFGGGTEVVVK
notes: recombinant rabbit IgG, kappa; Positions are Wolfguy indices, not positions on the entry; tie inferred
B4: the concentration giving a half-maximal response (EC50) in test [1] and in test [2] was < 0.02 µg/mL in each case.
